Measured values published in PMC4525147.
Where no end group is shown, it is not given here.

Experiments:
[1] = target: gp41, the Xenopus laevis ZP3, of the vitelline envelope (Xenopus laevis)
[2] = target: dicalcin (wild type)

| Kd of the concentration dependence of the inhibition of in vitro fertilization [1] [nM] | in vitro fertilization rate after pretreatment of the VE with the peptide at 4 μM, normalised to control [1] | in vitro fertilization rate after preincubation of the VE with gpp2 (concentration series, highest at 4 μM), normalised to control [2] | Binder |
| --- | --- | --- | --- |
| 33 | 25 % of control | – | SFSCNQKNK (also: biotin) [dcp11, dicalcin-derived peptide] |
| – | – | 132 % of control | RYEIINQNGCLVDGKLDDSSSAF (also: biotin) [gpp2, gp41-derived peptide] |
| 46 | 32 % of control | – | AALCKL (also: biotin) [dcp15, dicalcin-derived peptide] |
